Test results taken from PMC5585873.

B1: Bds1 (Saccharomyces cerevisiae S288C) (protein)
chain: MIGAFKRNRGSSQSFAKECQPSTLKANLEVAKELPFSDRRDFEDATQGYIGSLSDEQIIGPDGGVVWCMKSYGFLEPETPANTVNPSLWRQAQLNAIHGLFKITDNVYQVRGLDISNMTIIEGNTSLIIIDTLFTTETAQESLKLYYRHRPQKPVRTVIYTHSHSDHYGGVKGIVKEADVKSGEVQIIAPVGFMESVVAENILAGNAMHRRSQYQFGMLLSPSVKGHVDCGIGKAASHGTVTLIAPTIIIEEPVEERTIDGVDFVFQLAPGSEAPSEMLIYMPQQRVLNMAEDVTHHMHNLYALRGVEVRDGNQWAKYIDAARVAFGSKTDVLIAQHHWPTTGQMRINELLKKQRDMYKFIHDQTLRLLNQGYTSRDIAETLRMPSSLEQEWSTRGYYGTLSHNVKAVYQKYLGWYDANPANLNPLPPVAYAKKAVEYMGGADAVLARAYKDFQKGEFRWVASVVNQLVFADPNNHQARELCADALEQLGYQAEASTWRNAYLVGAMELRQGVPKRRSTGKRNNIAVLNNEMFFDFLAVRLNATKAEGKIIVSNWCFINSNERFVITLENCALTYIQGWQTDADATITLKRTTFEALLANEITMVDFLRSKEVEIEGNRLRIEELLKLFDDFDQSFPVVEPMGGST

Experiments:
CCCCCCOS(=O)(=O)O = assay: purified protein; details: 10 mM tris-HCl, pH 7.4, 25 °C, 0.16 μM enzyme
[1] = substrate: CCCCCCOS(=O)(=O)O; assay: LC-MS of substrate depletion, hyperbolic fit; type: biochemical, Saccharomyces cerevisiae; details: 10 mM tris-HCl, pH 7.4, 25 °C, 1.0 μM enzyme

Molecule | Km (CCCCCCOS(=O)(=O)O) [µM] | kcat (CCCCCCOS(=O)(=O)O) [s⁻¹] | Km [1] [µM] | kcat [1] [s⁻¹]
SdsA1 (Pseudomonas aeruginosa PAO1) | 110 ± 17 | 1.07 ± 0.45 |  | 
B1 |  |  | 300 ± 115 | 0.0067 ± 0.0017
